Experimental data: patent US20200339694A1 (CYTOMX THERAPEUTICS, published 2020)

Biological target: T1, Av1 antibody
T1 construct: also called parental AV1 antibody; anti-IL6R antibody
Assay: FACS of the peptide displayed on cells

T1 sequence (heavy, as listed by the source, chain 1 of 2): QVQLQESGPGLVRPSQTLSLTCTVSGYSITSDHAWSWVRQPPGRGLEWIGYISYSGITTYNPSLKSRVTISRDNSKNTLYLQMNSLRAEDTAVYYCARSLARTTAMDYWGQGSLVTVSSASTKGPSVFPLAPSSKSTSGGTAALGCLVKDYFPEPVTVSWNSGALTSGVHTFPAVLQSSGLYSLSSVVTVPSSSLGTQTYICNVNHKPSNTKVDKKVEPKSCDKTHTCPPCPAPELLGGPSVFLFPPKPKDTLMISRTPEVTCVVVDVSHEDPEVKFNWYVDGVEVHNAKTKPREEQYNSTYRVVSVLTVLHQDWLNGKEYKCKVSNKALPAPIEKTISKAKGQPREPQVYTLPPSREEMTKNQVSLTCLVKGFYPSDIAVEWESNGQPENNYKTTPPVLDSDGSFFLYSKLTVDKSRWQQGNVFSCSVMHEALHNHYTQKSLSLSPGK
T1 sequence (light, as listed by the source, chain 2 of 2): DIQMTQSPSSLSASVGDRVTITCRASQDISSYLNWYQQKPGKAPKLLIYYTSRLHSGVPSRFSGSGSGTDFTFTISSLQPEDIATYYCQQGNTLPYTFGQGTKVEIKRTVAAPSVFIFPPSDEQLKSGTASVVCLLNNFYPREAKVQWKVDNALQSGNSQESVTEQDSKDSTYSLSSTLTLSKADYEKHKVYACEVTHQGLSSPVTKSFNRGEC

Does PGAFDIPFPAHWVPNT (also called 4280; parental peptide) [Peptide 2 (SEQ ID NO: 34)] bind?
Result: binds

Does YRSCNWNYVSIFLDC (also called 4278; parental peptide) [Peptide 1 (SEQ ID NO: 33)] bind?
Result: binds
